Measurements from US20040077526A1.

Key:
[1] = target: murine SR-BI (mSR-BI), class B type I scavenger receptor (murine) (UniProt Q61009); assay: self-competition: unlabeled HDL (500 µg protein/ml) against [125I,3H]hHDL3 (10 µg protein/ml) on Y1-BS1 cells
[2] = target: murine SR-BI (mSR-BI), class B type I scavenger receptor (murine) (UniProt Q61009); assay: time course of cell association of 125I-HDL with ldlA[mSR-BI] cells at 37 C
[3] = target: murine SR-BI (mSR-BI), class B type I scavenger receptor (murine) (UniProt Q61009); assay: cell association of 125I-HDL with ldlA[mSR-BI] cells at 37 C

Chain of UniProt Q61009 (Q61009 whole entry): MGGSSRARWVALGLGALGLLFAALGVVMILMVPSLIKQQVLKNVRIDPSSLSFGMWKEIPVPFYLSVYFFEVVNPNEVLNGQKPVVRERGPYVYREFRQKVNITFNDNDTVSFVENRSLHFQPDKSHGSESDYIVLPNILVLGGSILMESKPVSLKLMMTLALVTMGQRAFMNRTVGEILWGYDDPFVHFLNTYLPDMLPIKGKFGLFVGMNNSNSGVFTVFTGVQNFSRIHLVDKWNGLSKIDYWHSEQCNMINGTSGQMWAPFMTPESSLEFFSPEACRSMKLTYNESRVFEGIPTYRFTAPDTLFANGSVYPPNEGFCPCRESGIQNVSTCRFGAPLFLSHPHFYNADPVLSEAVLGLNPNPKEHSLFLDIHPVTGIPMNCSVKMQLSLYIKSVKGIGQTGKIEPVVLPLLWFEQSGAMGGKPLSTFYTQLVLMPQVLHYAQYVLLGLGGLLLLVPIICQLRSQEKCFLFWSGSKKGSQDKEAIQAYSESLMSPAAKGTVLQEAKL

Substance	reduction of cell association of HDL [1]	cell-associated 125I-HDL at steady state (ng protein/mg cell protein) [2]	fraction of the total label bound to the transfected cells in 5 hours [3]
human HDL3 (hHDL3, 1.125-1.210 g/ml) labeled with [125I]dilactitol tyramine and [3H]cholesteryl oleolyl ether	85%		
human HDL (high density lipoprotein prepared from human plasma by zonal centrifugation) (from UniProt P02647 25-267; P02652 24-100)		200	< 0.5%
